# Biological target: T1, huIL1RAP ECD recombinant protein (human, UniProt Q9NPH3 21-367)
# T1 construct: also called recombinant human IL1RAP-ECD; recombinant human IL1RAP; not shown: C-terminal histidine tag for purification
# Assay: Octet BLI, antibody on Protein A biosensor, recombinant huIL1RAP ECD
# Procedure: Affinity: The affinity of antibodies to various recombinant IL1RAP protein was determined on an Octet Red™ instrument. After loading reagents into a 96-well plate, the Octet Red™ with Protein A-conjugated biosensors was programmed as follows: 30 seconds for baseline #1; 120 seconds to immobilize the antibody; 30 seconds for baseline #2; 300 seconds for association of antibody to recombinant IL1RAP; and 300-600 seconds for dissociation of recombinant IL1RAP from the antibody.
row,Binder,Kd
1,"5D12_C108Y (antibody, V domains shown, Cys108Tyr (VH) variant of 5D12_18A4) VH: QVQLQESGPGLVKPLGTLSLTCAVSGGSISNSNWWSWVRQPPGKGLEWIGEIYHSGSTNYNPSLKSRVTIALDWSKNQFSLQLRSVTAADTAVYYCARYGSGPFGGDYWGQGTLVTVSS VL: DIQLTQSPSFLSASVGDRVTISCRASQGISSYLAWYQQKPGKAPKLLIYAASTLQGGVPSRFSGSGSGTTFTLTISSLQPEDFATYYCQQLNTYPFTFGPGTKLEIK",13 nM
2,"17E9_15B1 (antibody, V domains shown, Recombinant human antibody) VH: not shown VL: DIQMTQSPSSLSASVGDRVTLTCRASQNIRSYLNWYQQKPGKAPKLLIFAASSLPSGVPSRFSGSGSVTDFTLTVSSLQPEDFATYSCQQSYSTPYTFGQGTKLEIK",21 nM
3,"16H2_17D1 (antibody, V domains shown, Recombinant human antibody) VH: EVQLLESGADLVQPGGSLRLSCAASGFTFSSYAMSWVRQAPGKGLEWVSTIRISGGTTYYADSVKGRFTISRDNSKNTLYLQMNSLRAEDTAVYYCVRDYYNGMDVWGQGTTVTVSS VL: EIVLTQSPATLSLSPGERATLSCRASQRVSSYLAWYQQKPGQAPRLLIYDASNRATGIPARFSGSGSGTDFTLTISSLEPEDFAVYYCQQRSYWPPAFGQGTKLEIK",50 nM
4,"26C5_15B4 (antibody, V domains shown, Recombinant human antibody) VH: EAQLLESGGGLVQPGGSLRLSCAASGFTFSSYAMSWVRQAPGKGLEWVSTISGSGGSTHYADSVKGRFTISRDNSKNTLYLQMNSLRAEDTAVYYCVRDYYYGMDVWGQGTTVTVSS VL: EIVLTQSPATLSLSPGERATLSCRASQSVSSYLAWYQQKPGQAPRLLIYDASNRATGIPARFSGSGSGTDFTLTISSLEPEDFAVYYCQQRSYWPPTFGQGTKLEIK",127 nM
5,"10C8-15A4 (antibody, V domains shown, Recombinant human antibody) VH: EEQLLESGADLAQPGGSLRLSCAASGFTFSSYAMSWVRQAPGKGLEWVSTIRISGDTTYYADSVKGRFTISRDNSKNTLFLQMNSLRAEDTAVYYCVRDYYNGMDVWGHGTTVTVSS VL: EIVLTQSPATLSLSPGERATLSCRASQRVSSYLAWYQQKPGQAPRLLIYDASNRATGIPARFSGSGSGTDFTLTISSLEPEDFAVYYCQQRSYWPPAFGQGTKLEIK",1 nM
6,"32C12-N26S (antibody, V domains shown, Asn26Ser (VL CDR1) variant of 32C12_21A4) VH: QVQLVESGGGVVQPGRSLRLSCAASGFTFRNYGIHWVRQAPGKGLEWVAVIWYDGSNKFYADSVKGRFTISRDNSKNTLYLQMNSLRVEDTAVYYCAREEGIAVAPFDYWGQGTLVTVSS VL: DIQMTQSPSSLSASVGDRVAITCRASQSIASYLNWYQQKPGKAPKLLIYGASSLQNGVPSRFSGSGSRTDFTLTISSLQPEDFATYYCQQSYSTEITFGQGTRLEIK",19 nM
7,"10C8_C43A (antibody, V domains shown, Cys43Ala variant of 10C8_15A1) VH: QVQLVESGGGVVQPGRSLRISCAASGFTFRSYGMHWVRQAPGKGLEWVAIIWHDESYKYYVDSVKGRFTISRDNSKNTLYLQMNSLRAEDTAVYYCARGDYYGSGSYYDAFDIWGQGTMVTVSS VL: DIQMTQSPSSLSASVGDRVIITCRASQGISNYLAWFQQKPGKAPNLLIYAASTLRSGVPSRFSGSGSGTDFTLTISSLQPEDVATYYCQKYNSAPYTFGQGTKVEIK",13 nM
8,"32F9_21A5 (antibody, V domains shown, Recombinant human antibody) VH: QLQLVESGGGVVQPGRSLRLSCAASGFTFSSHGMHWVRQAPGKGLEWVAVIWYDGSSEYYADSVKGRFTISRDNSKNTLYLQMNSLRAEDTAVYYCARENVYGSGWFFDYWGQGSLVTVSS VL: EIVMTQSPATLSVSPGERASLSCRASQSVGSNLAWYQQKPGQAPRLLIFGASTRATGIPARFSGSRSGTEFTLTISSLQSEDFALYYCQQYNNWPPWTFGQGTKLEIK",2 nM
9,"32D4_21D6 (antibody, V domains shown, Recombinant human antibody) VH: QLQLVESGGGVVQPGRSLRLSCAASGFTFSSYGMHWVRQAPGKGLEWVAVIWYDGSSEYYADSVKGRFTISRDNSKNTLYLQMNSLRAEDTAVYYCARENVYGSGWFFDYWGQGTLVTVSS VL: EIVMTQSPATLSVSPGERASLSCRASQSVGSNLAWYQQKPGQAPRLLIFGASTRATGIPARFSGSRSGTEFTLTISSLQSEDFALYYCQQYNNWPPWTFGQGTKVEIK",3 nM
10,"31F9_21A1 (antibody, V domains shown, Recombinant human antibody) VH: QVQLVESGGGMVQPGRSLRLSCTASGFTFSSHGMHWVRQAPGKGLEWVAVIWFDGSNEYYVDSVKGRFTISRDNSKNTLYLQMNSLRAEDTAVYYCARENVYGSGWFFDYWGQGTLVTVSS VL: EIVMTQSPATLSVSPGERASLSCRASQSVGSNLAWYQQKPGQAPRLLIFGASTRATGIPARFSGSRSGTEFTLTISSLQSEDFALYYCQQYNNWPPWTFGQGTKVEIK",2 nM
11,"33H2_21B1 (antibody, V domains shown, Recombinant human antibody) VH: EVQVVESGGGLVQPGGSLRLSCATSGFTFRSYWMTWVRQAPGKGLEWVANIKQDGSERHYVDSVKGRFTISRDNAKTSLYLQMSSLRAEDTAMYYCAREGYYGSGYFDYWGQGTLVTVSS VL: DIQMTQSPSTLSASVGDRVIITCRASQSISRGLAWYQQKPGKAPKLLIYKASNLESGVPSRFSGSGSGTEFTLTISSLQPDDFAAYYCQQYSYYSHTFGQGTKVEIK",7 nM
12,"36A12_21C1 (antibody, V domains shown, Recombinant human antibody) VH: EVQLVESGGGLVQPGGSLRLSCAASGFTLSFYWMTWVRQAPGKGLEWVANIKQDGNEKNYVDSVKGRFTISKDNAKKSVFLQMNSLRAEDTAVYYCAREGYFGSGYFDYWGQGTLVTVSS VL: DIQMTQSPSTLSASVGDRVTITCRASQSINSWLAWYQQKPGKAPKLLIYKASTLESGVPSRFSGSGSGTEFTLTISSLQPDDFAPYYCQHYNSYPHTFGQGTKVEIK",24 nM

# More lines, now with the values ahead:
row,Kd,Binder
1,7 nM,"42D10_28A5 (antibody, V domains shown, Recombinant human antibody) VH: QVQPKESGPGVVKPSETLSLTCAVSGFPISRGYYWGWIRQPPGKGLEWIGNIFHSGTTYYNPSLKSRVTISVDTSKNQISLKLTSVTAADTAVYYCVGFGDLPHYQYYVMDIWGQGTTVTVSS VL: EIVLTQSPATLSLSPGERATLSCRASQSVSSYLAWYQQKPGQAPRLLIYDASNRATGIPARFSGSGSGTDFTLTISSLEPEDFAVYYCQQRSNWPPYTFGQGTKLEIK"
2,29 nM,"38G11_28A2 (antibody, V domains shown, Recombinant human antibody) VH: EVQLVESGGGLVQPGGSLRLSCAASGFTFSSYWMSWVRQAPGKGLEWVANIKQDGSEKHYVDSVKGRFTISRDNAKNSLYLQMNSLRAEDTAVYYCAREGYFGSGYFDYWGQGTLVTVSS VL: DIQLTQSPSFLSASVGDRVTITCRASQGISSYLAWYQQKPGKAPKLLIYAASTLQSGVPSRFSGSGSGTEFTLTISSLQPEDFATYYCQQYSFYSHTFGQGTKLEIK"
3,3 nM,"39A9_28A4 (antibody, V domains shown, Recombinant human antibody) VH: QVQLVESGGGVVQPGRSLRLSCAASGFTLSGYGMHWVRQAPGKGLEWVAVIWYDGSNKYYADSVKGRFTISRDNSKNMLFLQMNSLRAEDTAVYYCVRENGFGSGWFFDYWGQGNLVTVSS VL: not shown"
4,5 nM,"41G4_15B6 (antibody, V domains shown, Recombinant human antibody) VH: QVQLVESGGGVVQPGRSLRLSCAASGFTFRNYGMHWVRQAPGKGLEWVAVIWYDGSNKFYADSVKGRFTISRDNSKNTLYLQMNSLRVEDTAVYYCAREEGIAVAPFDYWGQGTLVTVSS VL: DIQMTQSPSSLSASVGDRVAITCRANQSIASYLNWYQQKPGKAPKLLIYGASSLQNGVPSRFSGSGSRTDFTLTISSLQPEDFATYYCQQSYSTEITFGQGTRLEIK"
5,5 nM,"34H8_21B4 (antibody, V domains shown, Recombinant human antibody) VH: QVQLQESGPGLVKPSETLSLTCAVSGYSASGLYYWAWIRQPPGKGLEWIGNIYHSGRTYYNPSLESRVSISLDTSKHQVSLKLKSVTYADTAVYFCARDRFDGFDIWGQGTMVTVSS VL: EIVMTQSPATLSVSPGERATLSCRASQTINNILAWYQQKPGQAPRLLIYGASTRATGIPARFSGSGSGTEFTLTISSLQSEDFAVYYCQQYNNWPLTFGGGTKLEIK"
6,3 nM,"34D1_21B3 (antibody, V domains shown, Recombinant human antibody) VH: QGQLVESGGGVVQPGRSLRLSCAASGFTFSSYTLHWVRQAPGKGLEWVAVIWYDGSNKYYVDSVKGRFTISRDNSKNTLYLQMNSLRAEDTAVYYCAREYGSGSYYNVYYGMDVWGQGTTVTVSS VL: DIVMTQSPLSLPVTPGEPASISCRSSQSLLHSNGYKYLDWYLQKAGQSPHLLIYLGSNRASGVPDRFSGSGSGTDFTLKISRVEAEDVGFYYCMQTLQIPLTFGGGTKLEIK"
7,2 nM,"33E9_21A6 (antibody, V domains shown, Recombinant human antibody) VH: QLQLVESGGGVVQFGRSLRLSCAASGFTFSSHGMHWVRQAPGKGLEWVAVIWYDGSSEYYADSVKGRFTISRDNSKNTLYLQMNSLRAEDTAVYYCARENVYGSGWFFDYWGQGTLVTVSS VL: EIVMTQSPATLSVSPGERASLSCRASQSVGSNLAWYQQKPGQAPRLLIFGASTRATGIPARFSGSRSGTEFTLTISSLQSEDFALYYCQQYNNWPPWTFGQGTKLEIK"
8,3 nM,"35D11_22A1 (antibody, V domains shown, Recombinant human antibody) VH: QLQLVESGGGVVQPGRSLRLSCAASGFTFSSYGMHWVRQAPGKGLEWVAVIWYDGSSEYYADSVKGRFTISRDNSKNTLFLQMNSLRADDTAVYYCARENVYGSGWFFDYWGQGTLVTVSS VL: EIVMTQSPATLSVSPGERASLSCRASQSVGSNLAWYQQKPGQAPRLLIFGASTRATGIPARFSGSRSGTEFTLTISSLQSEDFALYYCQQYDNWPPWTFGQGTKLEIK"
9,0.2 nM,"34C11_21B2 (antibody, V domains shown, Recombinant human antibody) VH: EVQVVESGGGLVQPGGSLRLSCAASGFTFRSYWMSWVRQAPGKGLEWVANIKQDGSERHYVDSVKGRFTISRDNAKTSLYLQMSSLRAEDTAVYYCAREGYFGSGYFDYWGQGTLVTVSS VL: DIQMTQSPSTLSASVGDRVIITCRASQSISRGLAWYQQKPGKAPKLLIYKASNLESGVPSRFSGSGSGTEFTLTISSLQPDDFAAYYCQQYSYYSHTFGQGTKLEIK"
10,23 nM,"40C3_22B6 (antibody, V domains shown, Recombinant human antibody) VH: EVQLVESGGGLVQPGGSLRLSCAASGFTLSFYWMTWVRQAPGKGLEWVANIKQDGNEKNFVDSVKGRFTISRDNAKKSVFLQMNSLRAEDTAVYYCAREGYFGSGYFDYWGQGTLVTVSS VL: not shown"
